From patent publication US20230381229A1 come the findings set out here.

Assay [1] addresses T1, human TIGIT, full-length, expressed on transfected HEK293 cells (human).
T1 sequence: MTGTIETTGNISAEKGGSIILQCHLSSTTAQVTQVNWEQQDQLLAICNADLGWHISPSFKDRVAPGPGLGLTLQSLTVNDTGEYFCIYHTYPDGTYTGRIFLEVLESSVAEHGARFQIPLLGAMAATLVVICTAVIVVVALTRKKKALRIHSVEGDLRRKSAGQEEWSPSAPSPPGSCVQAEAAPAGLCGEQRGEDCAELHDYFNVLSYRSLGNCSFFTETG
The experiment in a line: flow cytometry, HEK293 transfectants, 100 nM. For orientation: A flow cytometer gives signals particle by particle.

In assay [2] the target is T2, human CD96, full-length, expressed on transfected HEK293 cells (human) (UniProt P40200).
T2 sequence: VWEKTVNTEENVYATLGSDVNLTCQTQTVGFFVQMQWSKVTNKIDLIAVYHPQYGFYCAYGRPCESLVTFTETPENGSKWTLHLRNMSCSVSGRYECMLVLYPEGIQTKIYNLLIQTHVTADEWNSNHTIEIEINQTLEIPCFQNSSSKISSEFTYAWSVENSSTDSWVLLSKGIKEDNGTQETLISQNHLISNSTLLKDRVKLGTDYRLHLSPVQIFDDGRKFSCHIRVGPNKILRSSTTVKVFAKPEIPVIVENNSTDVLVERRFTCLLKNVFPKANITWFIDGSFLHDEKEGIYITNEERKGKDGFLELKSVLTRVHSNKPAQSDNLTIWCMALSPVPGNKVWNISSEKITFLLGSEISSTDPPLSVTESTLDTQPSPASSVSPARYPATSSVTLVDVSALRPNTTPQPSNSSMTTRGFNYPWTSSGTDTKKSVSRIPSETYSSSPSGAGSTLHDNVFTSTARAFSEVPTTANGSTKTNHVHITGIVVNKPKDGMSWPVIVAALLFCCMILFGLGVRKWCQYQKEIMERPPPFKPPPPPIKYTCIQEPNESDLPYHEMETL
The experiment in a line: flow cytometry, HEK293 transfectants, 100 nM.

The next assay concerns the target T3, human CD226 (human).
T3 sequence: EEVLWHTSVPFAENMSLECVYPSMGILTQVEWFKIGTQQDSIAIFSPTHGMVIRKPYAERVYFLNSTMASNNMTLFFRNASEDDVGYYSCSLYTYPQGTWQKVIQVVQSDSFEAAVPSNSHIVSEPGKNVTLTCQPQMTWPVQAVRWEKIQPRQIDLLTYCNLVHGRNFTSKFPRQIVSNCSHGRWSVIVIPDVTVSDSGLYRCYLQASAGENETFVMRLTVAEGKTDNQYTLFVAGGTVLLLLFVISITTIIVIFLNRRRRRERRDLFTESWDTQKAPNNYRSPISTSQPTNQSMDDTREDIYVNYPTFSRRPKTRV
The experiment in a line: flow cytometry, transfected HEK293 cells, 100 nM.

Assay [3] has as its target human TIGIT (human). The assay can be described thus: flow cytometry, transfected HEK293 cells, 100 nM.
The target in assay [4] is CD112R (Homo sapiens (Human)) (UniProt Q6DKI7). The experiment in a line: flow cytometry, transfected HEK293 cells, 100 nM.
Another assay addresses T4, human CD96 (human) (UniProt P40200).
T4 sequence: T2 sequence
The experiment in a line: flow cytometry, transfected HEK293 cells, 100 nM.

Assay [5] addresses PD-1 expressed on cells (human). The assay can be described thus: flow cytometry, cells expressing PD-1.
Assay [6] concerns the target CD80 expressed on cells (Homo sapiens). The assay can be described thus: flow cytometry, cells expressing CD80.
In assay [7] the target is human TIGIT (human).
The target of assay [8] is CD112R (Homo sapiens (Human)) (UniProt Q6DKI7).
The target in assay [9] is PD-1 expressed on cells (human). The assay can be described thus: flow cytometry, Jurkat/PD-1 cells.
Target sequence in this assay (chain, as listed by the source): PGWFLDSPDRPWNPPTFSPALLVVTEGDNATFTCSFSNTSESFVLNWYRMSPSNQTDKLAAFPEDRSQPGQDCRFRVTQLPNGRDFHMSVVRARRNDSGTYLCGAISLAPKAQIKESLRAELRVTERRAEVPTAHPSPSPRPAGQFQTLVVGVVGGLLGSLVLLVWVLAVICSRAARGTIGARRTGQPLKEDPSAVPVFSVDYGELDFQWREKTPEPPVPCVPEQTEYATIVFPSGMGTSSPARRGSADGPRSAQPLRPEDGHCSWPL
The target of the next assay is PD-1-Fc (Homo sapiens). The assay can be described thus: ForteBio, PD-1-Fc. Background: Biolayer interferometry detects binding as a change in optical thickness at a sensor tip.
PD-1-Fc (Homo sapiens), sequence (chain, as listed by the source limits assumed): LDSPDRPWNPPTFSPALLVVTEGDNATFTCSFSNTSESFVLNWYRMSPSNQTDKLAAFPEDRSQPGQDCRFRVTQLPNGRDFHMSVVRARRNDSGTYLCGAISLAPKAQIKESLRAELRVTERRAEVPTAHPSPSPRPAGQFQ

CD155 IgV Fc, sequence (P15151 21-142): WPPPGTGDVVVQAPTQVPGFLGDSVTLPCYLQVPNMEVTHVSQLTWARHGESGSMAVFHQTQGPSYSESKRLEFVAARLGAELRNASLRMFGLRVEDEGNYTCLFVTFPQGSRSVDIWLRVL
CD112R (Homo sapiens (Human)), sequence (Q6DKI7 whole entry): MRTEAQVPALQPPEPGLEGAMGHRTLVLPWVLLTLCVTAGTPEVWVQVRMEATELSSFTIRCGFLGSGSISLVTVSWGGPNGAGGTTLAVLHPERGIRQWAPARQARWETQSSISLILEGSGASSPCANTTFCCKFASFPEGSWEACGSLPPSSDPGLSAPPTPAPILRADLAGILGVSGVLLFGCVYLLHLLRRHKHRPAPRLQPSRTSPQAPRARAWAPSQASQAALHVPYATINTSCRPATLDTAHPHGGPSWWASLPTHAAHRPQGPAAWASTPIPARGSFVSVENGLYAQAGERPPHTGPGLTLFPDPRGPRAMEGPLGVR
CD112 ECD-Fc (Fc fusion), sequence (chain): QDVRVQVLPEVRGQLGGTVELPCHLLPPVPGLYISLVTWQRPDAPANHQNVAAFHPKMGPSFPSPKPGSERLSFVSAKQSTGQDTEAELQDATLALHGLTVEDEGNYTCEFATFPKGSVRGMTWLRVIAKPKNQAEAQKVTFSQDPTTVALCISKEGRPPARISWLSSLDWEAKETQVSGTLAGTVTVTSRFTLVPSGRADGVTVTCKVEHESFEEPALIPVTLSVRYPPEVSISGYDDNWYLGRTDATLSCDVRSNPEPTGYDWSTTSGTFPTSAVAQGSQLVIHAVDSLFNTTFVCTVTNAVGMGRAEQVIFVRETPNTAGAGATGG
CTLA4-Fc (Fc fusion), sequence (chain): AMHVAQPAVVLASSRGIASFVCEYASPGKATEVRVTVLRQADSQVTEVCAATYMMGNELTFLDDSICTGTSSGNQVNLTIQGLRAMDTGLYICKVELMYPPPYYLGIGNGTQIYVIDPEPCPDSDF
human PD-1 (human), sequence (chain, as listed by the source limits assumed): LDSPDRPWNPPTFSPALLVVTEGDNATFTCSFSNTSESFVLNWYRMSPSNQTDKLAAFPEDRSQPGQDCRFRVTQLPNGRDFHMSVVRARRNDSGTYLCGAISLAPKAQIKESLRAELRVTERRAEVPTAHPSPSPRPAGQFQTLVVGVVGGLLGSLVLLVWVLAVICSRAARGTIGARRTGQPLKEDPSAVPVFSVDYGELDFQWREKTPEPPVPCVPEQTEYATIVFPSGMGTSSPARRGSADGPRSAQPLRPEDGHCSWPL

As to CD112 ECD-Fc (Fc fusion), the MFI at 100 nM in assay [1] was found to be 29200 MFI; in assay [2], 1100 MFI.
In the case of “CD155 IgV Fc (from UniProt P15151) (Fc fusion)”, the MFI at 100 nM in the assay with human CD226 (human) is 4690; with human TIGIT (human) [3], 4690; in [4], 2940; with human CD96 (human), 3270. Moreover, the Fold ↑ to WT ECD in [4] was determined as 1.65.
For CTLA4-Fc (Fc fusion), the values for the MFI at 20 nM in [5] and in assay [6] were 59 and 200000, respectively.
As to Fc Control, the MFI at 20 nM in assay [5] came to 59; in assay [6], 132. The RLU (IL-2-luciferase reporter) (with human PD-1 (human); with human TIGIT (human) [7]; in assay [8]) was 624 RLU throughout.
Substance “variant PD-L1 ECD-Fc G15A, I36T, M97L, K111E, H202Q (Fc fusion)” registered an MFI at 20 nM in assay [5] of 112.
In assay [5], “variant PD-L1 ECD-Fc G15A, I36T, V129D (Fc fusion)” yielded a Fold Change Compared to WT PD-L1 of 0 and an MFI at 20 nM of 114. This substance also displayed an MFI at 20 nM in assay [6] of 136.
For “variant PD-L1 ECD-Fc G15A, I36T, V129D, R195G (Fc fusion)”, in [5], the Fold Change Compared to WT PD-L1 was found to be 0 and the MFI at 20 nM amounted to 125.
In assay [5], “variant PD-L1 ECD-Fc G15A, V129D (Fc fusion)” yielded a Fold Change Compared to WT PD-L1 of 0.7. In addition, the MFI at 20 nM in assay [6] was 128.
In assay [5], “variant PD-L1 ECD-Fc I36T, G52R, M97L, V112A, K144E, V175A, P198T (Fc fusion)” displayed a Fold Change Compared to WT PD-L1 of 0 and an MFI at 20 nM of 81. The substance also came in with an MFI at 20 nM in assay [6] of 149.
Taken in the same sequence, the figures for “variant PD-L1 ECD-Fc I36T, I46V, D55G, M97L, K106E, K144E, T185A, R195G (Fc fusion)” were 0, 69 and 190.
Taken in the same sequence, the figures for “variant PD-L1 ECD-Fc I36T, M97L, A103V, Q155H (Fc fusion)” were 0, 120 and 128.
On to “variant PD-L1 ECD-Fc K28I, S99G (Fc fusion)”, for which, in assay [5], the MFI at 20 nM is 830.
In [5], “variant PD-L1 ECD-Fc L35P, I36S, M97L, K111E (Fc fusion)” registered a Fold Change Compared to WT PD-L1 of 0.1 and an MFI at 20 nM of 190. Moreover, the MFI at 20 nM in [6] was 155.
Take “variant PD-L1 ECD-Fc M18V, I98L, L124S, P198T, L206F (Fc fusion)”: the Fold Change Compared to WT PD-L1 in assay [5] was found to be 0.7. This substance also returned an MFI at 20 nM in assay [6] of 143.
In the case of “variant PD-L1 ECD-Fc M18V, M97L, F193S, R195G, E200K, H202Q (Fc fusion)”, in assay [5], the Fold Change Compared to WT PD-L1 amounted to 0 and the MFI at 20 nM turned out to be 69.
“variant PD-L1 ECD-Fc V93E, V129D (Fc fusion)”: the Fold Change Compared to WT PD-L1 in assay [5] was 0.4. Besides, the MFI at 20 nM in assay [6] amounted to 150.
In assay [5], “variant PD-L1 ECD-Fc V129D, H202Q (Fc fusion)” gave a Fold Change Compared to WT PD-L1 of 0.6. In assay [6], this substance returned a Fold Change Compared to WT PD-L1 of 1.6 and an MFI at 20 nM of 219.
For “variant PD-L1 ECD-Fc V129D, P198T (Fc fusion)”, the Fold Change Compared to WT PD-L1 in [5] stood at 1. In assay [6], this substance gave an MFI at 20 nM of 152.
Taken in the same sequence, the figures for “variant PD-L1 ECD-Fc V129D, T150A (Fc fusion)” were 0.6 and 142.
In assay [9], “variant PD-L2 IgV-Fc H15Q, R76G, I85F (SEQ ID NO 680) (Fc fusion)” yielded a Fold increase over wildtype PD-L2 IgV-Fc of 0.3 and an MFI at 50 nM of 2940. In the assay with PD-1-Fc (Homo sapiens), this substance gave a Fortebio binding to PD-1-Fc Response Units (Response Units) of -0.038.
“variant PD-L2 IgV-Fc H15Q, R76G, I85F (SEQ ID NO 685) (Fc fusion)”: in assay [9], the Fold increase over wildtype PD-L2 IgV-Fc came to 0.19 and the MFI at 50 nM was determined as 1890. For the same substance, in the assay with PD-1-Fc (Homo sapiens), the Fortebio binding to PD-1-Fc Response Units (Response Units) was -0.006.
